Where two headings read alike, the source gives them in different places.
Experiments:
[1] = test system: hCMEC/D3 cells
[2] = test system: bEnd3 cells
[3] = test system: brain of C57BL/6 mice; experiment: Brain clearance index; format: in vivo, mouse
[4] = test system: bEnd3 cells; remark: listed apart in the source
[5] = test system: hCMEC/D3 cells; remark: listed apart in the source
[6] = Integrity of 125I-Aβ40 in media without cells; format: physicochemical; conditions: 0.1 nM 125I-Aβ40 in media without cells
[7] = test system: bEnd3 cells; remark: listed apart in the source
[8] = test system: hCMEC/D3 cells; experiment: Aβ40 degradation in hCMEC/D3 cells with IDE or neprilysin inhibitor; format: cell-based, human; conditions: hCMEC/D3, thiorphan 2 mM
[9] = test system: bEnd3 cells; experiment: Aβ40 degradation in bEnd3 cells with IDE or neprilysin inhibitor; format: cell-based, mouse; conditions: bEnd3, thiorphan 2 mM
[10] = test system: mouse brain; conditions: ref Barten et al., 2005, Cirrito et al., 2003, cited from earlier work
[11] = test system: human brain; conditions: ref Mawuenyega et al., 2010, cited from earlier work
[12] = test system: brain; conditions: ref Shibata et al., 2000; cited from earlier work
[13] = test system: BBB; conditions: ref Ito et al., 2006; cited from earlier work

For “125I-Aβ40: radioiodinated amyloid-β 40 peptide tracer (PerkinElmer)”, the “effect of inhibition of RAGE, P-gp, or LRP1 on degradation during transport” value ([1]; hCMEC/D3, either direction, RAGE-IgG 5 µg/ml, valspodar 5 µM or RAP 1 µM, 12 h) was “did not affect”, the “effect of RAGE inhibition on 125I-Aβ40 degradation” value ([2]; bEnd3, RAGE-IgG 5 µg/ml, 0.1 nM, 15 min, P>0.05) was “not altered” and the “BCITotal(%), total brain clearance (BBB efflux + degradation)” value ([3]; mouse) was 58.7±3.9%. For the same molecule, the “BCIBBB(%), clearance across BBB” value ([3]; mouse, in vivo) was 35.6±3.3%, the “BCIDegradation(%), clearance by brain degradation” value ([3]; mouse, in vivo) was 23.1±2.3% and the “clearance across BBB as share of BCITotal(%)” value ([3]; mouse, in vivo) was 62%. For the same molecule, the “effect of inhibition of RAGE, P-gp, or LRP1 on degradation during transport” value ([4]; bEnd3, either direction, RAGE-IgG 5 µg/ml, valspodar 5 µM or RAP 1 µM, 30 min) was “did not affect”, the “effect of inhibition of P-gp on A→B transport” value ([4]; bEnd3, valspodar 5 µM pre- and co-incubated, 0.1 nM, 30 min) was “no alteration” and the “effect of RAGE inhibition on 125I-Aβ40 degradation” value ([5]; hCMEC/D3, RAGE-IgG 5 µg/ml, 0.1 nM, 12 h, P>0.05) was “not altered”. For the same molecule, the “dimer or higher oligomer formation” value ([6]; 12 h, 16% bis-tris gel electrophoresis) was “absence of dimers or higher oligomer formation”, the “dissociation of 125I from Aβ40” value ([6]; investigated time points) was “insignificant dissociation” and the “Intrinsic uptake (Vmax/Km)” value [7] was 2848 nL/min.

For `O=C(O)CNC(=O)C(CS)Cc1ccccc1` (centres unmarked) [thiorphan], the “effect of neprilysin inhibition on Aβ40 degradation” value [8] was “did not show any significant effect” and the “effect of neprilysin inhibition on Aβ40 degradation” value [9] was “did not show any significant effect”.

In the case of “Aβ40: amyloid-β peptide Aβ40, by-product of proteolytic degradation of amyloid precursor protein”, the “effect of P-gp inhibition on brain degradation” value ([3]; valspodar 40 µM intracerebral, 30 min, NS in Figure 1C) is listed as “without altering”, the “half-life of human Aβ40 in mouse brain” value ([10]; PDAPP mice) is listed as 2 h and the “half-life of human Aβ40 in mouse brain” value ([10]; Tg2576 mice) is listed as 0.63 h. For the same molecule, the “Aβ40 cleared from the brain per hour” value ([11]; cognitively normal individuals) was “about 7%”, the “corresponding half-life of Aβ40 in brain” value ([11]; cognitively normal individuals) was ~ 10 h and the “Aβ40 cleared from the brain per hour” value ([11]; patients with AD) was 5.2%. For the same molecule, the “corresponding half-life of Aβ40 in brain” value ([11]; patients with AD) was ~ 13 h and the “contribution of CSF flow to overall brain Aβ40 clearance” value [12] was 10–15%.

In the case of “Aβ42: amyloid-β peptide Aβ42, prone to rapid aggregation”, the “clearance across the BBB compared to Aβ40” value [13] is given as “slower”.

With valspodar the “change in 125I-Aβ40 accumulation (P-gp inhibition)” value ([2]; bEnd3, valspodar 5 µM pre- and co-incubated, 0.1 nM 125I-Aβ40, 15 min, P>0.05) was “did not cause any significant change”, the “effect of P-gp inhibition on 125I-Aβ40 degradation” value ([2]; bEnd3, valspodar 5 µM, 0.1 nM 125I-Aβ40, 15 min, P>0.05) was “no effect” and the “effect of P-gp inhibition on 125I-Aβ40 degradation” value ([5]; hCMEC/D3, valspodar 5 µM, 0.1 nM 125I-Aβ40, 12 h, P>0.05) was “no effect”.

B1: RAP: an LRP1 inhibitor (receptor-associated protein; Oxford Biomedical Research) (protein, UniProt P30533 35-357, looked up)
Alpha-2-macroglobulin …: YSREKNQPKPSPKRESGEEFRMEKLNQLWEKAQRLHLPPVRLAELHADLKIQERDELAWKKLKLDGLDEDGEKEARLIRNLNVILAKYGLDGKKDARQVTSNSLSGTQEDGLDDPRLEKLWHKAKTSGKFSGEELDKLWREFLHHKEKVHEYNVLLETLSRTEEIHENVISPSDLSDIKGSVLHSRHTELKEKLRSINQGLDRLRRVSHQGYSTEAEFEEPRVIDLWDLAQSANLTDKELEAFREELKHFEAKIEKHNHYQKQLEIAHEKLRHAESVGDGERVSRSREKHALLEGRTKELGYTVKKHLQDLSGRISRARHNEL
In the case of B1, the “decrease of intact 125I-Aβ40 transport B→A (LRP1 inhibition)” value ([1]; hCMEC/D3, RAP 1 µM pre- and co-incubated, 0.1 nM 125I-Aβ40, 12 h, P<0.01) is reported as 42%, the “decrease of cellular level of intact 125I-Aβ40 (LRP1 inhibition)” value ([2]; bEnd3, RAP 1 µM pre- and co-incubated, 0.1 nM 125I-Aβ40, 15 min, P<0.001) is reported as 67% and the “decrease of 125I-Aβ40 degradation (LRP1 inhibition)” value ([2]; bEnd3, RAP 1 µM, 0.1 nM 125I-Aβ40, 15 min, P<0.01) is reported as 24%. For the same molecule, the “decrease of intact 125I-Aβ40 transport B→A (LRP1 inhibition)” value ([4]; bEnd3, RAP 1 µM pre- and co-incubated, 0.1 nM 125I-Aβ40, 30 min, P<0.01) was 42%, the “decrease of cellular level of intact 125I-Aβ40 (LRP1 inhibition)” value ([5]; hCMEC/D3, RAP 1 µM pre- and co-incubated, 0.1 nM 125I-Aβ40, 12 h, P<0.001) was 42% and the “decrease of 125I-Aβ40 degradation (LRP1 inhibition)” value ([5]; hCMEC/D3, RAP 1 µM, 0.1 nM 125I-Aβ40, 12 h, P<0.01) was 28%.

— article PMC3965363 (Neuropharmacology, 2014)
